The supplement of paper PMC10126150
± gives the standard deviation of the averaged measurements.

Tested on: ATP
Assay: switch fluorescence ratio, 500 uM ATP over buffer (Cy3 cluster intensity, sum of 5 cycles each) (fold (ratio)); higher = stronger signal-on switching upon ATP binding; sequences stand for … in TCGTCGGCAGCGTCAGATGTGTATAAGAGACAGTTTTTTTTTTTTTTTTTTTTTTTTT…TC
Conditions: aptamer strand: ATP DNA aptamer (quencher-CACCTGGGGGAGTATTGCGGAGGAAGG + anchor), 100 nM annealed; ATP concentration: 500 uM
Method in brief: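 Clusters with intensities outside 100-1000 RFU were excluded. The remaining Cy3-labelled switching-strand clusters on a modified Illumina MiSeq flow-cell had been annealed to 100 nM quencher-labelled ATP aptamer and imaged in selection buffer, then after 15 min with 500 uM ATP at 22 °C, for five cycles separated by NaOH stripping and re-annealing. The fluorescence ratio, averaged per switch-domain sequence, is each cluster's summed target-cycle Cy3 intensity over its summed buffer-cycle Cy3 intensity.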
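Note: ATP exposure 15 min at 22 °C before imaging.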

Which switch fluorescence ratio does the source give for AAGGATTTTG here?
Its switch fluorescence ratio is 0.994 ± 0.022.

AATTAACGGC was tested. Which switch fluorescence ratio did it give?
Its switch fluorescence ratio is 1.07 ± 0.083.

For AAATTATTTT, which switch fluorescence ratio is on record?
The switch fluorescence ratio was 0.999 ± 0.014.

For CTTAGATTTG, which switch fluorescence ratio is on record?
The switch fluorescence ratio was 0.9655 ± 0.0076.

Which switch fluorescence ratio does the source give for GGCTTGGGAG here?
The switch fluorescence ratio was 0.982 ± 0.019.

Which switch fluorescence ratio does the source give for CGGTATTTTT here?
The switch fluorescence ratio was 1.02 ± 0.028.

How did the switch fluorescence ratio turn out when TAGGGCATGT was run?
The switch fluorescence ratio was 0.9798 ± 0.0026.

How did the switch fluorescence ratio turn out when TCGGGGTTGG was run?
Its switch fluorescence ratio is 0.978 ± 0.029.

How did the switch fluorescence ratio turn out when CGGTGGCTCC was run?
Its switch fluorescence ratio is 1.026 ± 0.0025.

How did the switch fluorescence ratio turn out when TATTGTATGC was run?
Its switch fluorescence ratio is 0.996 ± 0.037.

Which switch fluorescence ratio does the source give for TGGTCGTGTG here?
The switch fluorescence ratio was 1 ± 0.027.

How did the switch fluorescence ratio turn out when TTTACGGGAT was run?
The switch fluorescence ratio was 1.06 ± 0.036.

With AAGTTCACGT as the sequence, how does the switch fluorescence ratio read?
The switch fluorescence ratio was 0.996 ± 0.02.

Which switch fluorescence ratio does the source give for TTTCCAATCT here?
Its switch fluorescence ratio is 1.08 ± 0.13.

With TTTTTCCGGG as the sequence, how does the switch fluorescence ratio read?
The switch fluorescence ratio was 1.1 ± 0.11.

With GTCCGAAAGA as the sequence, how does the switch fluorescence ratio read?
Its switch fluorescence ratio is 1.18 ± 0.095.

With TGCGTTGCTA as the sequence, how does the switch fluorescence ratio read?
Its switch fluorescence ratio is 0.996 ± 0.038.

AGGGATAGCT was tested. Which switch fluorescence ratio did it give?
The switch fluorescence ratio was 0.967 ± 0.006.

With AAGTTACAGT as the sequence, how does the switch fluorescence ratio read?
Its switch fluorescence ratio is 1.04 ± 0.036.

With CAATTATTTT as the sequence, how does the switch fluorescence ratio read?
The switch fluorescence ratio was 1.02 ± 0.027.

With TTTTGGTTAA as the sequence, how does the switch fluorescence ratio read?
Its switch fluorescence ratio is 1.02 ± 0.041.

GGGTTTTCGA was tested. Which switch fluorescence ratio did it give?
Its switch fluorescence ratio is 1.014 ± 0.0011.

How did the switch fluorescence ratio turn out when ATTTAAGAGG was run?
The switch fluorescence ratio was 1 ± 0.041.

How did the switch fluorescence ratio turn out when GGAATTCCCG was run?
The switch fluorescence ratio was 0.98 ± 0.054.

Which switch fluorescence ratio does the source give for TTTTTTATAC here?
The switch fluorescence ratio was 1.02 ± 0.051.

GGGGCTTTTT was tested. Which switch fluorescence ratio did it give?
The switch fluorescence ratio was 1 ± 0.036.

ATAACGGCCT was tested. Which switch fluorescence ratio did it give?
Its switch fluorescence ratio is 1.007 ± 0.0099.

How did the switch fluorescence ratio turn out when GGTTCACTTT was run?
The switch fluorescence ratio was 1.02 ± 0.033.

For CTATTGGTTA, which switch fluorescence ratio is on record?
The switch fluorescence ratio was 1.01 ± 0.011.

How did the switch fluorescence ratio turn out when AATTGAAGGG was run?
Its switch fluorescence ratio is 0.996 ± 0.015.

Which switch fluorescence ratio does the source give for GCTAGGGTGG here?
The switch fluorescence ratio was 0.994 ± 0.018.

How did the switch fluorescence ratio turn out when GAAGTGAGGG was run?
Its switch fluorescence ratio is 0.995 ± 0.017.

For ACGTGACAGG, which switch fluorescence ratio is on record?
Its switch fluorescence ratio is 1.22 ± 0.013.

ACAGATACAG was tested. Which switch fluorescence ratio did it give?
The switch fluorescence ratio was 1.07 ± 0.025.

With AAAGAGGGGA as the sequence, how does the switch fluorescence ratio read?
The switch fluorescence ratio was 1.03 ± 0.016.

For AGACACCCCT, which switch fluorescence ratio is on record?
Its switch fluorescence ratio is 1.17 ± 0.073.

For ATGGGTTTTC, which switch fluorescence ratio is on record?
Its switch fluorescence ratio is 0.981 ± 0.03.

How did the switch fluorescence ratio turn out when AAGTACGGTG was run?
Its switch fluorescence ratio is 1.19 ± 0.089.

With CTGAATATGA as the sequence, how does the switch fluorescence ratio read?
The switch fluorescence ratio was 1 ± 0.065.

Which switch fluorescence ratio does the source give for GGTATATTCC here?
The switch fluorescence ratio was 1.02 ± 0.024.

With TCGTTGAGTG as the sequence, how does the switch fluorescence ratio read?
Its switch fluorescence ratio is 1.02 ± 0.056.

With CAAACAGTCG as the sequence, how does the switch fluorescence ratio read?
Its switch fluorescence ratio is 1.01 ± 0.042.

Which switch fluorescence ratio does the source give for CGCGGGGTAC here?
The switch fluorescence ratio was 1.66 ± 0.26.

With ATGAAATTGT as the sequence, how does the switch fluorescence ratio read?
The switch fluorescence ratio was 1.02 ± 0.033.

How did the switch fluorescence ratio turn out when ATTCTTATTG was run?
The switch fluorescence ratio was 0.9801 ± 0.0021.

TATGGAGGGT was tested. Which switch fluorescence ratio did it give?
The switch fluorescence ratio was 1.01 ± 0.022.

For TTTTCGGTGG, which switch fluorescence ratio is on record?
The switch fluorescence ratio was 1.05 ± 0.019.

Which switch fluorescence ratio does the source give for CCAAGGCAGG here?
The switch fluorescence ratio was 1.35 ± 0.069.

Which switch fluorescence ratio does the source give for TATATGTCCA here?
The switch fluorescence ratio was 1 ± 0.027.

How did the switch fluorescence ratio turn out when ACTTGGGATG was run?
Its switch fluorescence ratio is 0.982 ± 0.037.

ATTTAGTTCG was tested. Which switch fluorescence ratio did it give?
The switch fluorescence ratio was 0.9606 ± 0.0073.

With AGGTTATTTG as the sequence, how does the switch fluorescence ratio read?
The switch fluorescence ratio was 0.978 ± 0.015.

Which switch fluorescence ratio does the source give for AGGGTTGAAC here?
Its switch fluorescence ratio is 1 ± 0.023.

For TTAACATGGG, which switch fluorescence ratio is on record?
The switch fluorescence ratio was 1 ± 0.033.

CTTAGGGATT was tested. Which switch fluorescence ratio did it give?
The switch fluorescence ratio was 0.987 ± 0.031.

How did the switch fluorescence ratio turn out when GCGATTTCGG was run?
Its switch fluorescence ratio is 0.985 ± 0.023.

How did the switch fluorescence ratio turn out when GTGGGGATTT was run?
Its switch fluorescence ratio is 1.01 ± 0.013.

For CGGGGAGGGA, which switch fluorescence ratio is on record?
The switch fluorescence ratio was 1.03 ± 0.019.

How did the switch fluorescence ratio turn out when AGTACTGTGG was run?
Its switch fluorescence ratio is 0.996 ± 0.032.

Which switch fluorescence ratio does the source give for TTTTGTAATT here?
Its switch fluorescence ratio is 1.1 ± 0.2.

Which switch fluorescence ratio does the source give for GGGGAATCCT here?
Its switch fluorescence ratio is 1.036 ± 0.0077.

How did the switch fluorescence ratio turn out when GGGTCGGATG was run?
The switch fluorescence ratio was 1.03 ± 0.033.

How did the switch fluorescence ratio turn out when TTTGTATCAT was run?
Its switch fluorescence ratio is 1.017 ± 0.0076.

With GCTGAGGGTG as the sequence, how does the switch fluorescence ratio read?
The switch fluorescence ratio was 1.01 ± 0.028.

Which switch fluorescence ratio does the source give for GGGGATTGAT here?
Its switch fluorescence ratio is 1.02 ± 0.039.

How did the switch fluorescence ratio turn out when CATTTAGCAC was run?
Its switch fluorescence ratio is 1.131 ± 0.0021.

Which switch fluorescence ratio does the source give for TCGTGTTGTT here?
The switch fluorescence ratio was 0.969 ± 0.021.

With TGGGATTTTT as the sequence, how does the switch fluorescence ratio read?
The switch fluorescence ratio was 0.985 ± 0.031.

For GAGTGTTCTT, which switch fluorescence ratio is on record?
The switch fluorescence ratio was 0.977 ± 0.01.

Which switch fluorescence ratio does the source give for GTTGGAGGAA here?
Its switch fluorescence ratio is 0.976 ± 0.0098.

AACTTAGTGG was tested. Which switch fluorescence ratio did it give?
The switch fluorescence ratio was 0.996 ± 0.028.

Which switch fluorescence ratio does the source give for TAGGGCCAAC here?
Its switch fluorescence ratio is 1.016 ± 0.0092.

GCGAGATCTT was tested. Which switch fluorescence ratio did it give?
Its switch fluorescence ratio is 0.968 ± 0.015.

Which switch fluorescence ratio does the source give for TTAGAGGCTG here?
The switch fluorescence ratio was 0.912 ± 0.15.

TACTACTTGC was tested. Which switch fluorescence ratio did it give?
Its switch fluorescence ratio is 1.05 ± 0.0085.

How did the switch fluorescence ratio turn out when ACGGCAAGGA was run?
Its switch fluorescence ratio is 1.12 ± 0.028.

With AGATGGATTA as the sequence, how does the switch fluorescence ratio read?
The switch fluorescence ratio was 1.025 ± 0.0024.

TTTATATTAT was tested. Which switch fluorescence ratio did it give?
Its switch fluorescence ratio is 0.993 ± 0.043.

With TTTGGACCGA as the sequence, how does the switch fluorescence ratio read?
The switch fluorescence ratio was 1.03 ± 0.016.

With TTTTGGCT as the sequence, how does the switch fluorescence ratio read?
The switch fluorescence ratio was 1.02 ± 0.025.

For AAGTAGGAGT, which switch fluorescence ratio is on record?
The switch fluorescence ratio was 0.994 ± 0.034.

CCTATTCTGA was tested. Which switch fluorescence ratio did it give?
Its switch fluorescence ratio is 0.97 ± 0.068.

For GGCTTGGAGC, which switch fluorescence ratio is on record?
Its switch fluorescence ratio is 0.996 ± 0.025.

Which switch fluorescence ratio does the source give for TAAGATTTGT here?
The switch fluorescence ratio was 0.99 ± 0.02.

TATGAAGTCG was tested. Which switch fluorescence ratio did it give?
Its switch fluorescence ratio is 0.9937 ± 0.0098.

Which switch fluorescence ratio does the source give for GGTTAAGTTT here?
The switch fluorescence ratio was 0.969 ± 0.025.

With GGGATAGATA as the sequence, how does the switch fluorescence ratio read?
The switch fluorescence ratio was 1.03 ± 0.022.

With ATGGAGGCGC as the sequence, how does the switch fluorescence ratio read?
The switch fluorescence ratio was 0.981 ± 0.028.

How did the switch fluorescence ratio turn out when AGGGGAAAAG was run?
Its switch fluorescence ratio is 0.993 ± 0.049.

With TCAAGGGGGT as the sequence, how does the switch fluorescence ratio read?
Its switch fluorescence ratio is 1.04 ± 0.097.

For GGGTAAGGTT, which switch fluorescence ratio is on record?
The switch fluorescence ratio was 0.985 ± 0.028.

For TTACATTT, which switch fluorescence ratio is on record?
The switch fluorescence ratio was 1.02 ± 0.017.

ATTCTCGTTA was tested. Which switch fluorescence ratio did it give?
Its switch fluorescence ratio is 0.996 ± 0.0053.

Which switch fluorescence ratio does the source give for CCGCTCGATG here?
The switch fluorescence ratio was 1.37 ± 0.023.

For TCTTTGGGCT, which switch fluorescence ratio is on record?
The switch fluorescence ratio was 1.1 ± 0.19.

With GGTTGTGCGA as the sequence, how does the switch fluorescence ratio read?
The switch fluorescence ratio was 0.98322 ± 0.00037.

With GTAATACTTG as the sequence, how does the switch fluorescence ratio read?
Its switch fluorescence ratio is 1.079 ± 0.01.

How did the switch fluorescence ratio turn out when GGGGCGGATG was run?
The switch fluorescence ratio was 0.968 ± 0.013.

With TGCGTAGGAA as the sequence, how does the switch fluorescence ratio read?
Its switch fluorescence ratio is 1.061 ± 0.0049.

AAGGGGTCTG was tested. Which switch fluorescence ratio did it give?
The switch fluorescence ratio was 0.979 ± 0.02.
